From publication doi:10.1101/2022.03.25.485784 (bioRxiv, 2022)

Biological target: the molecule itself
Assay: cryo-EM structure

B1: dtSARM1, the full-length SARM1 with the N-terminal 27-aa segment replaced by a twin-Strep and Flag-tag (enzyme)
chain: LAVPGPDGGGGTGPWWAAGGRGPREVSPGAGTEVQDALERALPELQQALSALKQAGGARAVGAGLAEVFQLVEEAWLLPAVGREVAQGLCDAIRLDGGLDLLLRLLQAPELETRVQAARLLEQILVAENRDRVARIGLGVILNLAKEREPVELARSVAGILEHMFKHSEETCQRLVAAGGLDAVLYWCRRTDPALLRHCALALGNCALHGGQAVQRRMVEKRAAEWLFPLAFSKEDELLRLHACLAVAVLATNKEVEREVERSGTLALVEPLVASLDPGRFARCLVDASDTSQGRGPDDLQRLVPLLDSNRLEAQCIGAFYLCAEAAIKSLQGKTKVFSDIGAIQSLKRLVSYSTNGTKSALAKRALRLLGEEVPRPILPSVPSWKEAEVQTWLQQIGFSKYCESFREQQVDGDLLLRLTEEELQTDLGMKSGITRKRFFRELTELKTFANYSTCDRSNLADWLGSLDPRFRQYTYGLVSCGLDRSLLHRVSEQQLLEDCGIHLGVHRARILTAAREMLHSPLPCTGGKPSGDTPDVFISYRRNSGSQLASLLKVHLQLHGFSVFIDVEKLEAGKFEDKLIQSVMGARNFVLVLSPGALDKCMQDHDCKDWVHKEIVTALSCGKNIVPIIDGFEWPEPQVLPEDMQAVLTFNGIKWSHEYQEATIEKIIRFLQGRSSRDSSAGSDTSLEGAAPMGPT
stoichiometry N: 8
